# Experimental data taken from US20220259268A1 (NATIONAL UNIVERSITY CORPORATION TOKAI NATIONAL HIGHER …, published 2022).
# Biological target: the molecule itself
# Assay: dynamic light scattering of liposomes carrying Nhead-SNAP on the surface layer
protein,measurement,value
"Nhead-SNAP fusion peptide (AtaA59-325-GCN4pII-SNAP-His) (other, also called E. coli recombinant Nhead-SNAP) not shown",binding result,no binding
